How the values were obtained:
GFP-CaV2.2-HA (rabbit) = GFP-CaV2.2-HA (rabbit) (UniProt Q05152)
[1] = target: GFP-CaV2.2 K-R-HA (rabbit) (UniProt Q05152)

Gmax (whole cell conductance) from Boltzmann fits, whole cell patch clamp of tsA-201 cells with CaVα2δ-1, 1 mM Ba2+ (GFP-CaV2.2-HA (rabbit)): 7.7 nS/pF
IBa current density at +5 mV, whole cell patch clamp of tsA-201 cells with CaVα2δ-1, 1 mM Ba2+ (GFP-CaV2.2-HA (rabbit)): 277 pA/pF
V50 of activation from Boltzmann fits of current density-voltage relationships, whole cell patch clamp of tsA-201 cells with CaVα2δ-1, 1 mM Ba2+ (GFP-CaV2.2-HA (rabbit)): -4.7 mV
Gmax (whole cell conductance) from Boltzmann fits, whole cell patch clamp of tsA-201 cells with CaVα2δ-1, 1 mM Ba2+ [1]: 4.5 nS/pF
IBa current density at +5 mV, whole cell patch clamp of tsA-201 cells with CaVα2δ-1, 1 mM Ba2+ [1]: 148 pA/pF
V50 of activation from Boltzmann fits of current density-voltage relationships, whole cell patch clamp of tsA-201 cells with CaVα2δ-1, 1 mM Ba2+ [1]: 1.3 mV
Substance: CaVβ1b-GFP (from UniProt P54283 1-597) (natural protein)

From article PMC5034038
